Data as given in US12371675B2, “Process and microorganism for synthesis of adipic acid from carboxylic acids” (THE GOVERNING COUNCIL OF THE UNIVERSITY OF TORONTO, priority 2015, dated 2025).

How the values were obtained:
[1] = substrate: O=C(O)CCCCCO; test: purified protein, by the assay type; conditions: other: ATP/NADPH dependent reduction; pH 7.5
[2] = substrate: O=CCCCCC=O; test: AT kinetics, coupled with alanine and glutamate dehydrogenases; assay type: biochemical, Sinorhizobium meliloti; conditions: other: amino-donor Ala/Glu; pH 7.5
Experimental: 28 PLP-dependent aminotransferases (from the classes I, II and III) were cloned and overexpressed in E. coli (Table 6). Enzymes were purified using affinity chromatography on a Ni-NTA resin and were screened for […] activity towards adipaldehyde using alanine and glutamate as amino-donors. Enzyme activity was measured spectrophotometrically using a coupled reaction with the NADPH/NADH-dependent alanine and glutamate dehydrogenases in the presence of excess of ammonium chloride.
Reaction was monitored by following the decrease in absorbance of NAD(P)H to NAD(P)+ at 340 nm (ε340 nm=6,220/M·cm). Coupled enzymes can aminate pyruvate/ketoglutarate produced by ATs in excess of NH4Cl.

Row | Protein | Km [1] [mM] | kcat [1] [s⁻¹] | kcat/Km [1] [M⁻¹ s⁻¹] | Km [2] [mM] | kcat [2] [s⁻¹] | kcat/Km [2]
1 | Mycobacterium smegmatis carboxylate reductase MSMEG_5739, SEQ ID NO: 37 (Mycolicibacterium smegmatis MC2 155) (protein) MTSDVHDATDGVTETALDDEQSTRRIAELYATDPEFAAAAPLPAVVDAAHKPGLRLAEILQTLFTGYGDRPALGYRARELATDEGGRTVTRLLPRFDTLTYAQVWSRVQAVAAALRHNFAQPIYPGDAVATIGFASPDYLTLDLVCAYLGLVSVPLQHNAPVSRLAPILAEVEPRILTVSAEYLDLAVESVRDVNSVSQLVVFDHHPEVDDHRDALARAREQLAGKGIAVTTLDAIADEGAGLPAEPIYTADHDQRLAMILYTSGSTGAPKGAMYTEAMVARLWTMSFITGDPTPVINVNFMPLNHLGGRIPISTAVQNGGTSYFVPESDMSTLFEDLALVRPTELGLVPRVADMLYQHHLATVDRLVTQGADELTAEKQAGAELREQVLGGRVITGFVSTAPLAAEMRAFLDITLGAHIVDGYGLTETGAVTRDGVIVRPPVIDYKLIDVPELGYFSTDKPYPRGELLVRSQTLTPGYYKRPEVTASVFDRDGYYHTGDVMAETAPDHLVYVDRRNNVLKLAQGEFVAVANLEAVFSGAALVRQIFVYGNSERSFLLAVVVPTPEALEQYDPAALKAALADSLQRTARDAELQSYEVPADFIVETEPFSAANGLLSGVGKLLRPNLKDRYGQRLEQMYADIAATQANQLRELRRAAATQPVIDTLTQAAATILGTGSEVASDAHFTDLGGDSLSALTLSNLLSDFFGFEVPVGTIVNPATNLAQLAQHIEAQRTAGDRRPSFTTVHGADATEIRASELTLDKFIDAETLRAAPGLPKVTTEPRTVLLSGANGWLGRFLTLQWLERLAPVGGTLITIVRGRDDAAARARLTQAYDTDPELSRRFAELADRHLRVVAGDIGDPNLGLTPEIWHRLAAEVDLVVHPAALVNHVLPYRQLFGPNVVGTAEVIKLALTERIKPVTYLSTVSVAMGIPDFEEDGDIRTVSPVRPLDGGYANGYGNSKWAGEVLLREAHDLCGLPVATFRSDMILAHPRYRGQVNVPDMFTRLLLSLLITGVAPRSFYIGDGERPRAHYPGLTVDFVAEAVTTLGAQQREGYVSYDVMNPHDDGISLDVFVDWLIRAGHPIDRVDDYDDWVRRFETALTALPEKRRAQTVLPLLHAFRAPQAPLRGAPEPTEVFHAAVRTAKVGPGDIPHLDEALIDKYIRDLREFGLI | 8.33 ± 0.73 | 1.21 ± 0.04 | 145 ± 4.4 |  |  | 
2 | Mycobacterium smegmatis carboxylate reductase MSMEG_2956, SEQ ID NO: 70 (Mycolicibacterium smegmatis MC2 155) (protein) MTIETREDRFNRRIDHLFETDPQFAAARPDEAISAAAADPELRLPAAVKQILAGYADRPALGKRAVEFVTDEEGRTTAKLLPRFDTITYRQLAGRIQAVTNAWHNHPVNAGDRVAILGFTSVDYTTIDIALLELGAVSVPLQTSAPVAQLQPIVAETEPKVIASSVDFLADAVALVESGPAPSRLVVFDYSHEVDDQREAFEAAKGKLAGTGVVVETITDALDRGRSLADAPLYVPDEADPLTLLIYTSGSTGTPKGAMYPESKTATMWQAGSKARWDETLGVMPSITLNFMPMSHVMGRGILCSTLASGGTAYFAARSDLSTFLEDLALVRPTQLNFVPRIWDMLFQEYQSRLDNRRAEGSEDRAEAAVLEEVRTQLLGGRFVSALTGSAPISAEMKSWVEDLLDMHLLEGYGSTEAGAVFIDGQIQRPPVIDYKLVDVPDLGYFATDRPYPRGELLVKSEQMFPGYYKRPEITAEMFDEDGYYRTGDIVAELGPDHLEYLDRRNNVLKLSQGEFVTVSKLEAVFGDSPLVRQIYVYGNSARSYLLAVVVPTEEALSRWDGDELKSRISDSLQDAARAAGLQSYEIPRDFLVETTPFTLENGLLTGIRKLARPKLKAHYGERLEQLYTDLAEGQANELRELRRNGADRPVVETVSRAAVALLGASVTDLRSDAHFTDLGGDSLSALSFSNLLHEIFDVDVPVGVIVSPATDLAGVAAYIEGELRGSKRPTYASVHGRDATEVRARDLALGKFIDAKTLSAAPGLPRSGTEIRTVLLTGATGFLGRYLALEWLERMDLVDGKVICLVRARSDDEARARLDATFDTGDATLLEHYRALAADHLEVIAGDKGEADLGLDHDTWQRLADTVDLIVDPAALVNHVLPYSQMFGPNALGTAELIRIALTTTIKPYVYVSTIGVGQGISPEAFVEDADIREISATRRVDDSYANGYGNSKWAGEVLLREAHDWCGLPVSVFRCDMILADTTYSGQLNLPDMFTRLMLSLVATGIAPGSFYELDADGNRQRAHYDGLPVEFIAEAISTIGSQVTDGFETFHVMNPYDDGIGLDEYVDWLIEAGYPVHRVDDYATWLSRFETALRALPERQRQASLLPLLHNYQQPSPPVCGAMAPTDRFRAAVQDAKIGPDKDIPHVTADVIVKYISNLQMLGLL | 66.15 ± 9.48 | 2.32 ± 0.22 | 35.1 ± 3.29 |  |  | 
3 | Mycobacterium smegmatis carboxylate reductase MSMEI_5586, SEQ ID NO: 35 (Mycolicibacterium smegmatis MC2 155) (protein) MHQLTVTGMNICEVQRLFPRMTSDVHDATDGVTETALDDEQSTRRIAELYATDPEFAAAAPLPAVVDAAHKPGLRLAEILQTLFTGYGDRPALGYRARELATDEGGRTVTRLLPRFDTLTYAQVWSRVQAVAAALRHNFAQPIYPGDAVATIGFASPDYLTLDLVCAYLGLVSVPLQHNAPVSRLAPILAEVEPRILTVSAEYLDLAVESVRDVNSVSQLVVFDHHPEVDDHRDALARAREQLAGKGIAVTTLDAIADEGAGLPAEPIYTADHDQRLAMILYTSGSTGAPKGAMYTEAMVARLWTMSFITGDPTPVINVNFMPLNHLGGRIPISTAVQNGGTSYFVPESDMSTLFEDLALVRPTELGLVPRVADMLYQHHLATVDRLVTQGADELTAEKQAGAELREQVLGGRVITGFVSTAPLAAEMRAFLDITLGAHIVDGYGLTETGAVTRDGVIVRPPVIDYKLIDVPELGYFSTDKPYPRGELLVRSQTLTPGYYKRPEVTASVFDRDGYYHTGDVMAETAPDHLVYVDRRNNVLKLAQGEFVAVANLEAVFSGAALVRQIFVYGNSERSFLLAVVVPTPEALEQYDPAALKAALADSLQRTARDAELQSYEVPADFIVETEPFSAANGLLSGVGKLLRPNLKDRYGQRLEQMYADIAATQANQLRELRRAAATQPVIDTLTQAAATILGTGSEVASDAHFTDLGGDSLSALTLSNLLSDFFGFEVPVGTIVNPATNLAQLAQHIEAQRTAGDRRPSFTTVHGADATEIRASELTLDKFIDAETLRAAPGLPKVTTEPRTVLLSGANGWLGRFLTLQWLERLAPVGGTLITIVRGRDDAAARARLTQAYDTDPELSRRFAELADRHLRVVAGDIGDPNLGLTPEIWHRLAAEVDLVVHPAALVNHVLPYRQLFGPNVVGTAEVIKLALTERIKPVTYLSTVSVAMGIPDFEEDGDIRTVSPVRPLDGGYANGYGNSKWAGEVLLREAHDLCGLPVATFRSDMILAHPRYRGQVNVPDMFTRLLLSLLITGVAPRSFYIGDGERPRAHYPGLTVDFVAEAVTTLGAQQREGYVSYDVMNPHDDGISLDVFVDWLIRAGHPIDRVDDYDDWVRRFETALTALPEKRRAQTVLPLLHAFRAPQAPLRGAPEPTEVFHAAVRTAKVGPGDIPHLDEALIDKYIRDLREFGLI | 16.2 ± 2.11 | 1.2 ± 0.07 | 74.2 ± 4.05 |  |  | 
4 | Sinorhizobium meliloti aminotransferase SM2011_b20379, SEQ ID NO: 59 (Sinorhizobium meliloti 1021) (protein) MNDRPNSLHALDKQSLVHPYTNLAVHQETGPHVITGGDGIYVVDDEGKRYIEGLAGLFCAGLGFSEQRLVEAATRQLKTMPFYHSFAHKSTEPGIRLAEKLLSIAPVPMSKVFFAGSGSEANDTAIKLIWYYNNALGRPEKKKIISRRKAYHGVTVATASLTGLPFNHRDFDLPIANILHTDCPHYWRFAETGETEEDFATRMANNLEAIILEEGPETIAAFFAEPVMVSGGVITPPKTYFEKVQAVLRKYDILLIADEVICGFGRTGNMFGSETYGLKPDMISCAKQLSAAYMPISALMINAKIADALVDQSRKIGTFSHGFTYGGHPVAAAVALEALTIYEEIDIVGHVRSVAPAFQDRVRKLGEHPLIGEARGVGLVAGLEFVKDKATRENFPPAWQVANQAGKFATARGVLTRGLGDMVSLCPAMIIDDEQIDDLMTRMGLALDDTLAWARAQGHVG |  |  |  | 0.32 ± 0.10 | 0.26 ± 0.05 | (8.08 ± 1.52) × ×10^2 M^−1 · s^−1
5 | Sinorhizobium meliloti aminotransferase SM2011_c04388, SEQ ID NO: 58 (Sinorhizobium meliloti 1021) (protein) MNAHNKPNAPVLDSYWMPFTANRQFKAAPRLLAAAEGMHYTSVDGRTVLDGTAGLWCVNAGHGRRQIAAAVERQLSTMDFAPSFQMGHPIAFDFAERLAEIAPGPAGAKLDRVFFTGSGSESVDTALKMALAYQRSIGQGTRTRLIGRERGYHGVGFGGISVGGIVNNRRVFPQLPGSDHLRHTHDPAKNAFVKGQPEHGAELADDLERLVALHGAETIAACIVEPVAGSTGVLIPPKGYLERLRAICDKHGILLIFDEVITGFGRLGAAFATDYFGVTPDIVTTAKGLTNGAIPMGAVFASRKVHDALMHGPEGQIELFHGYTYSGHPAACAAGIATLDIYRDEGLMTRAAEIEGDWHEAMHSMKGLPHVIDIRTIGLIAGIELQSRDGAPGARAYDVFVDCFERGLLIRVTGDIIAFSPPLIAEKQHFGEIVSILADALKRVK |  |  |  | 8.58 ± 3.34 |  | 
6 | Sinorhizobium meliloti aminotransferase SM2011_b20423, SEQ ID NO: 60 (Sinorhizobium meliloti 1021) (protein) MLERSNELTAWDRDHFFHPSTHMGMHARGETPTRVIGGGEGVYITDISGKRSLDAFAGLYCVNVGYGRQKIADAIAEQAKNLAYYHAYVGHGTEASIRLSKMIIDRAPEGMSRVYFGLSGSDANETNIKLIWYYNNILGRPEKKKIISRWRGYHGSGVMTGSLTGLHLFHNAFDLPRAPILHTEAPYYFRRPDRSMSEEQFSQYCADKLEEMILAEGPDTVAAFIGEPILGTGGIVPPPKGYWEKIQAVLQKYDILLVADEVVTGFGRLGTMFGSDHYGIKPDLITIAKGLTSAYAPLSGTIVSDKLWQVLVKGSDELGAIGHGWTYSAHPICAAAGIANLELIDELGIVENAGSTGAYFRAELQKAVGDHRHVGEVRGDGLMAAIEFVEDRDDRAFFDPGRKVGPQVAAALLERGVIGRAMPQGDILGFAPPLCLTRDEADIVVKAAADTIQSVLGR |  |  |  | 2.64 ± 0.35 | 0.28 ± 0.01 | (1.05 ± 0.06) × ×10^2 M^−1 · s^−1
